We go through one molecule from patent US20180037641A1.

This test concerns the target P301S human tau, T34 isoform (1N4R), of P301S tg mice (line PS19) (human) (UniProt P10636). Briefly: cell-based or functional assay.

Chain of P301S human tau, T34 isoform (1N4R), of P301S tg mice (line PS19) (human) (P10636 other isoform, or with tags, fused parts or gaps P301S P301S P301S P301S): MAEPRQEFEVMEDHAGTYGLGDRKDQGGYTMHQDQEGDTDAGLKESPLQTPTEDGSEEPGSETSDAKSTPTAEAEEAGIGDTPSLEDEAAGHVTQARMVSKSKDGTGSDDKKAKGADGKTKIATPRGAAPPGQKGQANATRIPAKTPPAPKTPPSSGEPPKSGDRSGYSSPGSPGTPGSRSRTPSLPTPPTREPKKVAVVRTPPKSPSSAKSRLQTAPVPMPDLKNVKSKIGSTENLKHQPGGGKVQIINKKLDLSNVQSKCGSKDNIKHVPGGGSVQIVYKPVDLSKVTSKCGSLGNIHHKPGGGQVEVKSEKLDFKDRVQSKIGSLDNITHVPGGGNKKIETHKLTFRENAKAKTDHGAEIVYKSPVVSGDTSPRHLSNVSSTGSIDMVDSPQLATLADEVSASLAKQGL

B1: HJ8.5 (antibody, V domains shown)
VH: EVKVEESGGGLVQPGGSMKLSCVVSGFTFSNYWVNWVRQSPEKGLEWVAQIRLKSDNYATHYEESVKGRFTISRDDSKSSVYLQMNNLRAEDSGIYYCTNWEDYWGQGTTLTVSS
VL: DIVLTQSPASLAVSLGQRATISCRASQSVSTSRYSYIHWYQQKPGQPPKLLIKYASNLESGVPARFSGSGSGTDFTLNIHPLEEEDAATYYCHHSWEIPLTFGAGTKLELK
Take B1: the antibody concentration that significantly blocked uptake and seeding activity stood at 0.5 µg/mL; the lowest antibody concentration that blocked seeding activity (titration against a fixed amount of P301S brain lysate) is 0.25 µg/mL.
